According to US20110294738A1, “PTHR1 RECEPTOR COMPOUNDS” (priority 2008, published 2011):
* marks the point of attachment. Palmitoyl = CCCCCCCCCCCCCCCC(=O)*

Key:
PTHR1 [1] = biological target: T1, PTHR1 (Rattus norvegicus, UniProt P25961)
T1 sequence (P25961 27-591): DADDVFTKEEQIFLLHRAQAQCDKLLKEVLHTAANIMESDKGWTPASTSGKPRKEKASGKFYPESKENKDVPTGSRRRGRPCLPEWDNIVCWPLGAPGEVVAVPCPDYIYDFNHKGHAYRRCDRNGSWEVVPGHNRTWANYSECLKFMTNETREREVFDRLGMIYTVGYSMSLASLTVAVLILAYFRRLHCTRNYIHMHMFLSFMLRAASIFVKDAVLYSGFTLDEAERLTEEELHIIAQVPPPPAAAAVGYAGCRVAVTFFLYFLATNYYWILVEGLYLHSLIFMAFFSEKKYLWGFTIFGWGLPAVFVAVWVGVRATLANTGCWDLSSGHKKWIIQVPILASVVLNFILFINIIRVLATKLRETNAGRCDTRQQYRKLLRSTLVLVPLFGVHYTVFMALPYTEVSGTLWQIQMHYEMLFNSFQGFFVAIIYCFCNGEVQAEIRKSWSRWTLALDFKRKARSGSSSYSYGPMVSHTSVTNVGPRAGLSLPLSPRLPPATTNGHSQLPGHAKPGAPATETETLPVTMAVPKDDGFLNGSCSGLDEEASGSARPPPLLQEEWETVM
Description: (§1) cAMP Screening Assay Using DiscoveRX XS+ Kit
(§2) UMR-106 cells were seeded in 96-well white plates at 10K cells/well in growth media. Twenty four hours after seeding, cell media was removed by gentle dumping and replaced with 30 μL of compounds diluted to 10 μM final concentration in assay buffer (Hank's balanced Salt Solution, 20 mM HEPES, pH 7.4, 0.1 μM IBMX). After 30 minute incubation at room temperature, 10 μL human PTH1-34 serial diluted in assay buffer was added. Cells were incubated at 37° C. for 15 minutes before 10 μL of water soluble analog of forskolin, NKH477 was added to final concentration of 10 μM followed by 60 minute incubation at room temperature. DiscoveRX cAMP XS+ kit reagents were then added following manufacture protocol. Briefly, 10 μL of antibody was added to each well followed by 40 μL of ED/Lysis buffer mix (1/5/19 for Galacon-star/Emerald/Lysis buffer and then 1:1 with ED). After 1 hour incubation, 40 μL of EA reagent was added followed by at least 1 hour incubation before the plates were read on TopCount reader. Data was analyzed using GraphPad Prism. PTH1-34 dose-response curves were fitted using non-linear curve fit (Y=Bottom+(Top−Bottom)/(1+10̂((Log EC50−X)*HillSlope))). PTH1-34 EC50 values calculated in the presence of compounds were compared to that in the presence of vehicle control. The ratio of the EC50 values were calculated and presented as fold shift (EC50 compound/EC50 vehicle). The effect of compounds on PTH1-34 stimulated maximal response was also assessed and was presented percent inhibition (1−(Emax compound/Emax vehicle)).

PTHR1 [2] = biological target: T1, PTHR1; assay: cAMP screening assay using DiscoveRX XS+ kit (PTH1-34 dose-response in UMR-106 cells); conditions: compound 10 μM, PTH1-34 stimulated maximal response, 1−(Emax compound/Emax vehicle)
Description: as §1, §2

Substance	Inhibition of Maximal Response (PTHR1 [2]) [%]	Fold Shift of EC50 (PTHR1 [1])
Pal-NGEVQAEIKKSWSRWTLALD-amide (Palmitoyl-NGEVQAEIKKSWSRWTLALD-NH2; SMILES CCCCCCCCCCCCCCCC(=O)N[C@@H](CC(N)=O)C(=O)NCC(=O)N[C@@H](CCC(=O)O)C(=O)N[C@H](C(=O)N[C@@H](CCC(N)=O)C(=O)N[C@@H](C)C(=O)N[C@@H](CCC(=O)O)C(=O)N[C@H](C(=O)N[C@@H](CCCCN)C(=O)N[C@@H](CCCCN)C(=O)N[C@@H](CO)C(=O)N[C@@H](Cc1c[nH]c2ccccc12)C(=O)N[C@@H](CO)C(=O)N[C@@H](CCCNC(=N)N)C(=O)N[C@@H](Cc1c[nH]c2ccccc12)C(=O)N[C@H](C(=O)N[C@@H](CC(C)C)C(=O)N[C@@H](C)C(=O)N[C@@H](CC(C)C)C(=O)N[C@@H](CC(=O)O)C(N)=O)[C@@H](C)O)[C@@H](C)CC)C(C)C) [Compound 105]	34.00	1.1
GSEKKYLWGFT [Compound 42]	40.80	1.3
KLRETNAGRSDTRQQRKLL [Compound 47]	8.30	2.7
KKSWSRWTLALDFKRKAR [Compound 97]	37.20	4.7
LYLHSLIFMAFFSEKKYL [Compound 39]	29.30	1.3
RETNAGRSDTRQQY [Compound 62]	−5.40	1.1
TNAGRSDTRQQYRF [Compound 70]	15.10	2
RETNAGRSDTRQQYRKLL [Compound 59]	3.00	5.2
LYLHSLIFMAFFSEKKYLWG [Compound 38]	21.90	1.1
EIKKSWSRWTLALDFKRKAR [Compound 96]	7.00	1.1
LAYFRRLHSTRNYI [Compound 9]	12.70	1.1
HSLIFMAFFSEKKYLWGFT [Compound 36]	5.90	1.2
GSEKKYLWG [Compound 43]	5.70	1.4
LAYFRRLHSTRNYIHMH [Compound 10]	24.10	1.1
DTRQQYRKLLKS [Compound 67]	6.90	6
AYFRRLHSTRNYIH [Compound 7]	36.00	1.2
AGRSDTRQQYRKLLFA [Compound 94]	−24.40	18.7
DTRQQYRKLLKSTL [Compound 56]	−30.40	1.9
RRLHSTRNYIHM [Compound 15]	1.50	1.7
HSLIFMAFFSEKKYL [Compound 33]	27.50	1.1
RVLATKLRETNAGR [Compound 75]	12.60	1.1
LAYFRRLHSTRNYIH [Compound 5]	13.00	1
YLHSLIFMAFFSEKKYLWGFT [Compound 35]	24.50	1.1
SGRVLATKLR [Compound 71]	13.50	0.8

More lines, main results first:

Inhibition of Maximal Response (PTHR1 [2]) [%]	Substance	Fold Shift of EC50 (PTHR1 [1])
32.30	SGRVLATKLRETNA [Compound 73]	0.8
29.20	GGYFRRLHSTRNYIH [Compound 13]	0.7
26.10	NIVRVLATKLRE [Compound 55]	0.6
4.30	RETNAGRSDTRQQYRK [Compound 60]	3.3
22.30	SGRVLATKLRET [Compound 72]	0.7
39.40	SGRRLHSTRNYIHMH [Compound 17]	2.8
0.50	NGEVQAEIKKSWSRWTLA [Compound 98]	1
1.70	TNAGRSDTRQQYRKLLKSTL [Compound 52]	11.1
10.80	YFRRLHSTRNYIH [Compound 6]	1
−74.20	LAYFRRLHSTR [Compound 4]	0.9
26.80	SRWTLALDFKRKAR [Compound 104]	1.2
−0.10	TNAGRSDTRQQYRKLLKS [Compound 64]	7
−25.40	SWSRWTLALDFKRKAR [Compound 102]	1
−39.00	RSDTRQQYRKLLKS [Compound 66]	16.4
5.20	TNAGRSDTRQQYRKLLFA [Compound 86]	3.6
−3.30	RETNAGRSDTRQQRKLLKS [Compound 48]	7
−5.80	TNAGRSDTRQQYRKLLF [Compound 83]	7
8.00	TNAGRSDTRQQYRKLLA [Compound 87]	4.1
6.40	KLRETNAGRSDTRQQY [Compound 53]	2.1
5.50	RRLHSTRNYIHMH [Compound 1]	1.3
−25.20	TNAGRSDTRQQYRKLLK [Compound 84]	9.1
26.80	NGEVQAEIKKSWSR [Compound 100]	1.8
2.50	TNAGRSDTRQQYRK [Compound 69]	5.2
22.20	SGRVLATKLRETNAGR [Compound 74]	1.9
20.30	VLATKLRETNAGRSDTRQQ [Compound 46]	0.9
15.20	LAYFRRLHSTRN [Compound 14]	0.7
17.50	NIVRVLATKLRETNAGR [Compound 54]	0.7
−8.30	NIVRVLATKLRETNAGRSD [Compound 44]	2
